According to article PMC10362042:
pKd: −log10 of the molar value. Several values for one entry are separate records, joined by “and”; a condition that tells them apart may be missing. Equal values may be shown once. Read-outs that look alike come from different tables or passages of the source.

Tests used:
Test in all cases: SPR
Rabbit ACE2 (rabbit) = biological target: Rabbit ACE2 (rabbit)
Goat ACE2 (goat) = biological target: Goat ACE2 (goat)
Sheep ACE2 (sheep) = biological target: Sheep ACE2 (sheep)
Dog ACE2 (dog) = biological target: Dog ACE2 (dog)
Pig ACE2 (pig) [1] = biological target: Pig ACE2 (pig)
Pig ACE2 (pig) [2] = biological target: Pig ACE2 (pig); remark: listed apart in the source

Substance	pKd (Rabbit ACE2 (rabbit))	Kd (Goat ACE2 (goat))	pKd (Sheep ACE2 (sheep))	pKd (Dog ACE2 (dog))	pKd (Goat ACE2 (goat))	pKd (Pig ACE2 (pig) [1])	pKd (Pig ACE2 (pig) [2])
SARS-CoV-2 Omicron BA.1 RBD (residues 319-541) (from UniProt P0DTC2 319-541) (domain or fragment)	7.22 and 7.36	174 nM and 180 nM (2×) and 188 nM	7.21 and 7.18 and 7.15	–	–	–	–
SARS-CoV-2 Omicron BA.4/5 RBD (residues 319-541) (from UniProt P0DTC2 319-541) (domain or fragment)	–	–	–	6.68 and 6.84 and 6.73	7.54 and 7.58 and 7.60	8.21 and 8.14 and 8.10	–
SARS-CoV-2 Omicron BA.2 RBD (residues 319-541) (from UniProt P0DTC2 319-541) (domain or fragment)	7.12 and 7.27 and 7.23	111 nM and 102 nM and 106 nM (2×)	–	–	–	6.18	6.14 and 6.17
